{"source": "paper PMC3274541", "about": "(2012)", "binders": {"B1": {"name": "His6-FAT10, recombinant purified (protein)", "chain": "MAPNASCLCVHVRSEEWDLMTFDANPYDSVKKIKEHVRSKTKVPVQDQVLLLGSKILKPRRSLSSYGIDKEKTIHLTLKVVKPSDEELPLFLVESGDEAKRHLLQVRRSSSVAQVKAMIETKTGIIPETQIVTCNGKRLEDGKMMADYGIRKGNLLFLACYCIGG"}}, "molecular_target": "T1, GST-AIPL1 (Homo sapiens (Human), UniProt Q9NZN9)", "T1 chain": "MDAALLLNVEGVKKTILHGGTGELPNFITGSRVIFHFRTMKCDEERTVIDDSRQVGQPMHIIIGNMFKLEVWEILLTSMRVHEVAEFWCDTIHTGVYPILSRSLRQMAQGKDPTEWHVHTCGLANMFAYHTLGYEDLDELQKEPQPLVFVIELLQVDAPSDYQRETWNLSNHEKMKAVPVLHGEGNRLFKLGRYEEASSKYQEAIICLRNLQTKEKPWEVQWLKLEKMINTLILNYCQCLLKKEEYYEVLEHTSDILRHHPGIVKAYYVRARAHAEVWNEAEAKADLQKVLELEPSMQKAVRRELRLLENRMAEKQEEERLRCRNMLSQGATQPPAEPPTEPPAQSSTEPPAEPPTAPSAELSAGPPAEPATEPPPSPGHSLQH", "assay": "GST pull-down"}
{"binder": "B1", "values": [{"measurement": "binding result", "result": "binds"}]}
